Assay results: the Immune Epitope Database (IEDB)

What was measured:
Assay in all cases: IEDB peptide-MHC binding, purified MHC/competitive/fluorescence; filed as Kd, often an IC50 or EC50 that approximates it; ≥ and ≤ were set here for values at or beyond the usual limits of such assays
Conditions in all cases: source organism: Salmonella enterica subsp. enterica serovar Typhi
HLA-B*51:01 = target: HLA-B*51:01
HLA-B*40:13 = target: HLA-B*40:13
HLA-A*32:07 = target: HLA-A*32:07
HLA-A*03:19 = target: HLA-A*03:19
HLA-B*58:01 = target: HLA-B*58:01
HLA-A*68:23 = target: HLA-A*68:23
HLA-A*02:01 = target: HLA-A*02:01
HLA-A*32:15 = target: HLA-A*32:15
HLA-C*04:01 = target: HLA-C*04:01
HLA-C*06:02 = target: HLA-C*06:02
HLA-B*15:01 = target: HLA-B*15:01
HLA-B*45:06 = target: HLA-B*45:06
HLA-B*15:42 = target: HLA-B*15:42

In the case of MTMLTRWKI, the Kd (HLA-B*51:01) is reported as ≥ 20000 nM, the Kd (HLA-B*40:13) is reported as 365 nM and the Kd (HLA-A*32:07) is reported as 77.2 nM. It also gave a Kd (HLA-A*03:19) of 3510 nM, a Kd (HLA-B*58:01) of 5 nM and a Kd (HLA-A*68:23) of 0.3 nM. The Kd (HLA-A*02:01) was 222 nM, the Kd (HLA-A*32:15) was 47.8 nM and the Kd (HLA-C*04:01) was ≥ 5000 nM. For the same sequence, the Kd (HLA-C*06:02) was 641 nM, the Kd (HLA-B*15:01) was ≥ 20000 nM and the Kd (HLA-B*45:06) was ≥ 5000 nM. The Kd (HLA-B*15:42) was ≥ 5000 nM.
